{
  "source": "patent US20130116129",
  "key": {"mouse IgG (Mus musculus)": {"tested_on": "mouse IgG (Mus musculus)", "experiment": "SELEX"}, "[1]": {"tested_on": "rat IgG (Rattus norvegicus)", "experiment": "SELEX", "details": "uppercase RNA, lowercase DNA"}},
  "data": [
    {"sequence": "CGAUAGGUGUUGAGGGCGAUCUCAGCGCUUGUUG [T1-GGCGAT]", "values": [
      {"measurement": "binding signal", "setting": "mouse IgG (Mus musculus); beads alone 155, p=0.037, 37 C", "value": 691, "unit": "reads"}
    ]},
    {"sequence": "CGAUAGGUGUUGAGGGGUAUCUCAGCGCUUGUUG [T1-GGGTAT]", "values": [
      {"measurement": "binding signal", "setting": "mouse IgG (Mus musculus); beads alone 37, p=0.039, 37 C", "value": 787, "unit": "reads"}
    ]},
    {"sequence": "CGAUAGGUGUUGAGGUGGAUCUCAGCGCUUGUUG [T1-GTGGAT]", "values": [
      {"measurement": "binding signal", "setting": "mouse IgG (Mus musculus); beads alone 24, p=0.014, 37 C, library assigned to SEQ 2 from six-base random region", "value": 1560, "unit": "reads"}
    ]},
    {"sequence": "CGAUAGGUGUUGAGGUGGGUCUCAGCGCUUGUUG [T1-GTGGGT]", "values": [
      {"measurement": "binding signal", "setting": "mouse IgG (Mus musculus); beads alone 136, p=0.024, 37 C", "value": 730, "unit": "reads"}
    ]},
    {"sequence": "CGAUAGGUGUUGAGGUUGGUCUCAGCGCUUGUUG [T1-GTTGGT]", "values": [
      {"measurement": "binding signal", "setting": "mouse IgG (Mus musculus); beads alone 25, p=0.035, 37 C", "value": 605, "unit": "reads"}
    ]},
    {"sequence": "CGAUAGGUGUUGAGUGGGCUCUCAGCGCUUGUUG [T1-TGGGCT]", "values": [
      {"measurement": "binding signal", "setting": "mouse IgG (Mus musculus); beads alone 78, p=0.014, before selection 201, p=0.123, 37 C", "value": 605, "unit": "reads"}
    ]},
    {"sequence": "CGAUAGGUGUUGAGUUCGAUCUCAGCGCUUGUUG [T1-TTCGAT]", "values": [
      {"measurement": "binding signal", "setting": "mouse IgG (Mus musculus); beads alone 44, p=0.019, 37 C", "value": 548, "unit": "reads"}
    ]},
    {"sequence": "CGAUAGGUGUUGAGUUGGUUCUCAGCGCUUGUUG [T1-TTGGTT]", "values": [
      {"measurement": "binding signal", "setting": "mouse IgG (Mus musculus); beads alone 23, p=0.048, 37 C", "value": 713, "unit": "reads"}
    ]},
    {"sequence": "CGCCTCTCCGAGAGTGTAGGGCAUACAUTCTUGGAGAGGUG [T3-AGGGCAT]", "values": [
      {"measurement": "binding signal", "setting": "mouse IgG (Mus musculus); uppercase RNA, lowercase DNA, protein G beads 3", "value": 18, "unit": "reads"},
      {"measurement": "binding signal", "setting": "[1]; protein G beads 3", "value": 106, "unit": "reads"}
    ]},
    {"sequence": "CGCCTCTCCGAGAGTGTAUUAACCACAUTCTUGGAGAGGUG [T3-ATTAACC]", "values": [
      {"measurement": "binding signal", "setting": "mouse IgG (Mus musculus); uppercase RNA, lowercase DNA, protein G beads 78, 150 mM NaCl, 10 mM MgCl2", "value": 3120, "unit": "reads"},
      {"measurement": "binding signal", "setting": "[1]; below protein G bead background of 78", "value": 25, "unit": "reads"}
    ]}
  ]
}
